Assay [1] addresses T1, Thor-Rab (Candidatus Thorarchaeota archaeon SMTZ1-45, UniProt A0A135VL07).
T1 construct: codon-optimized gene in pSY5, N-terminal His8 tag removed by HRV 3C; E. coli expression; naturally lacks the C-terminal cysteine extension; two molecules in the asymmetric unit
T1 sequence (A0A135VL07 1-182): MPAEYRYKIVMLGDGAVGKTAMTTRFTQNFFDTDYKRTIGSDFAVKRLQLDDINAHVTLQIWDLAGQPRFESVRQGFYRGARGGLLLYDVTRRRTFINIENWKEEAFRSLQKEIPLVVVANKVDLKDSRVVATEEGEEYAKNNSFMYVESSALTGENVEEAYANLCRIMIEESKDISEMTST
In words: X-ray crystallography, co-crystal without Mg2+ ([…] Å) and soak with Mg2+ ([…] Å). The settings on record: co-crystal 10 mM GTPγS, one copy mixed GDP/GTPγS, second copy full GTPγS; soak of GDP crystal with GTPγS and MgCl2; pH 5.5; nucleotide-binding site.

Assay [2] deals with SMTZ1-45 Thor-TRAPPC3, TRAPPC3-like protein from Thor SMTZ1-45 (Candidatus Thorarchaeota archaeon SMTZ1-45). In words: crystal structure; Thor-TRAPPC3 crystals in 100 mM HEPES, pH 7.5, 250 mM magnesium formate-dihydrate, 18% wt/vol PEG3350, 20 °C; molecular replacement with the AB25 Thor-TRAPPC3 model (7YH2).
Assay [3] addresses Odin-RBLC7, truncated roadblock (RBLC7) protein from Odin LCB_4 (Odinarchaeota LCB_4). In words: crystal structure; Odin-RBLC7 crystals in 200 mM MgSO4, 20% PEG 4000, 10% glycerol, 20 °C; molecular replacement with dynein DLRB1 (PDB 3L7H).
The target of another assay is T2, Rab11B (Homo sapiens, UniProt Q15907).
T2 construct: codon-optimized gene in pSY5, N-terminal His8 tag with HRV 3C site (tag removed); E. coli expression
T2 sequence (Q15907 1-218): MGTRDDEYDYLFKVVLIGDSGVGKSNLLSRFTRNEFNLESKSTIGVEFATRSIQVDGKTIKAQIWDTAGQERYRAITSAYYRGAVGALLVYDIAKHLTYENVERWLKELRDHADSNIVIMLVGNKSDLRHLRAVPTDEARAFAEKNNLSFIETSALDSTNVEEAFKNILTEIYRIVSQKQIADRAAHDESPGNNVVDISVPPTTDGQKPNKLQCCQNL
As to the kind of experiment: phosphate release assay (EnzChek), GTP hydrolysis. To be noted: 1 mM GTP, 2 mM MgCl2, 20 mM HEPES pH 7.5, 150 mM NaCl, 25 °C, 2 h; no GAP or GEF; heat-denatured control. It is filed as biochemical.

Assay [4] deals with T1, Thor-Rab. In words: phosphate release assay (EnzChek), GTP hydrolysis. It is filed as biochemical. The settings on record: 1 mM GTP, 2 mM MgCl2, 20 mM HEPES pH 7.5, 150 mM NaCl, 25 °C, 2 h; no GAP or GEF; heat-denatured control.
Assay [5] has as its target Thor-RB, predicted roadblock (RB) protein from Thor SMTZ1-45 (Candidatus Thorarchaeota archaeon SMTZ1-45). In words: crystal structure; Thor-RB crystals in 100 mM sodium acetate trihydrate, pH 5.0, 200 mM LiCl, 16% wt/vol PEG 6000, 20 °C; molecular replacement with MglB (PDB 3T1S).
Assay [6] addresses MKD1-RB, roadblock (RB) protein from Loki MKD1 (Candidatus Prometheoarchaeum syntrophicum strain MK-D1). As to the kind of experiment: crystal structure; MKD1-RB crystals in 100 mM MES, pH 6.0, 250 mM zinc acetate dihydrate, 6% wt/vol PEG 3000, 20 °C; solved using the Thor-RB structure.

This is an account of results in article PMC10933270, “The eukaryotic-like characteristics of small GTPase, roadblock and TRAPPC3 proteins from Asgard archaea” (Communications Biology, 2024).

Consider `Nc1nc2c(ncn2[C@@H]2O[C@H](COP(=O)(O)OP(=O)(O)OP(O)(O)=S)[C@@H](O)[C@H]2O)c(=O)[nH]1` [GTP-γS], for which, at Thor-Rab [1], the “X-ray crystallography, co-crystal without Mg2+ (1.75 Å) and soak with Mg2+ (1.95)” value is on record as “full occupancy for GTP-γS in the second copy”.
As a reminder, the stoichiometry N is the number of molecules, sites or subunits per partner or assembly. In turn, “SMTZ1-45 Thor-TRAPPC3, TRAPPC3-like protein from Thor SMTZ1-45 (natural protein)” displayed a stoichiometry N in assay [2] of 2.
The compound “Odin-RBLC7, truncated roadblock (RBLC7) protein from Odin LCB_4 (natural protein)” returned a stoichiometry N in assay [3] of 2.
In the case of `Nc1nc2c(ncn2[C@@H]2O[C@H](COP(=O)(O)OP(=O)(O)OP(=O)(O)O)[C@@H](O)[C@H]2O)c(=O)[nH]1` [GTP], the “phosphate release assay (EnzChek), GTP hydrolysis” value on Rab11B is “The GTPase activity of human Rab11B and SMTZ1-45 Thor-Rab were measured”; on Thor-Rab [4] it was “SMTZ1-45 Thor-Rab generated similar levels of phosphate in comparison to human Rab11B”.
Consider “Thor-RB, predicted roadblock (RB) protein from Thor SMTZ1-45 (natural protein)”, for which the stoichiometry N in assay [5] is 2.
On to “MKD1-RB, roadblock (RB) protein from Loki MKD1 (natural protein)”, for which the stoichiometry N in assay [6] stood at 2.
